The results in this text go back to patent US20140370037A1 (published 2014).

The chains are these.
T1: human DLL3 antigen (human, UniProt Q9NYJ7 27-492, limits assumed)
T1 construct: also called immobilized human DLL3; recombinant human DLL3
T1 sequence (looked up): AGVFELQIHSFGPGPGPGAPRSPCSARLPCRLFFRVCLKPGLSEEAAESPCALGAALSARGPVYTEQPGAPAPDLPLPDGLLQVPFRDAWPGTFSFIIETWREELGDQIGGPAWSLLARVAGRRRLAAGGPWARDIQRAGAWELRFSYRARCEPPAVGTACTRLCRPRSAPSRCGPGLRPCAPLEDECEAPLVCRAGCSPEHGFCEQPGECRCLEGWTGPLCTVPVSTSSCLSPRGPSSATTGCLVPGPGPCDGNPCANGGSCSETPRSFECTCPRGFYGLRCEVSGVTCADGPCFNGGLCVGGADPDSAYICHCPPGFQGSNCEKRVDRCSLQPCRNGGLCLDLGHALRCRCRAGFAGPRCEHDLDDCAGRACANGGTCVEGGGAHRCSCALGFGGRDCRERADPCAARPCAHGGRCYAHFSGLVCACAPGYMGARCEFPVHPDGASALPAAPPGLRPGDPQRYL

B1: SC16.109 (antibody, V domains shown)
VL: QIVLTQSPAIMSASPGEKVTMTCSASSSVSYMYWYQQKPGSSPRLLIYDTSNLASGVPVRFSGSGSGTSFSLTISRMEAEDTATYYCQEWSGNPLTFGDGTKLELK
V domain: QIQLVQSGPELKKPGETVKISCKASGYTFTNYGMNWVKQAPGKGLKWMGWINTYTGEPAYADDFKGRFAFSLETSASAAYLQINNLKNEDTATFFCANMRPTRGFAYWGQGTLGTVSA
notes: murine mAb
B2: SC16.110 (antibody, V domains shown)
VH: EVQLQQSGPGLVRTGASVKISCKASGYSFTGYYMHWVKQSHGKSLEWIGYISCYNGATTYNQNFKGKATFIVDTSSSTAYMQFNSLTSEDSAVYYCARSDGGHAMDYWGQGTSVTVSS
VL: NIVMTQTPKFLLVSAGDRVTITCKASQSVSNDVAWYQQKPGQSPKLLIYYASNRYTGVPDRFTGSGYGTDFTFTISTVQAEDLAVYFCQQDYSSPPTFGGGTKLEIK
notes: murine mAb
B3: SC16.133 (antibody, V domains shown)
VH: QVQLKESGPGLVAPSQSLSITCTVSGFSLTNYAVHWVRQSPGKGLEWLGVIWSDGSTDYNAAFISRLSISKDNSKSQVFFKMNSLQADDTAMYYCARKKGGWFPWFAYWGQGTLVTVSA
VL: B2 VL with N1S, Y50C, P96L, G100A, I106L
notes: murine mAb
B4: SC16.135 (antibody, V domains shown)
VH: QVQLQQSGAELVRPGTSVKVSCKASGYAFTNYLIEWVKQRPGQGLEWIGVINPGSGGTNSNEKFKAKATLTADKSSSTAYMQLSSLTSADSAVYFCARSDYDYAFYAMDYWGQGTSVTVSS
VL: DIKMTQSPSSMYASLGERVTITCKASQDINRYLSWFQQKPGKSPKTLIYRANRLVDGVPSRFSGSGSGQDYSLTISSLEYEDMGIYYCLQYDEFPFTFGSGTKLEIK
notes: murine mAb
B5: SC16.117 (antibody, V domains shown)
VH: QVQLKESGPGLVAPSQSLSIPCTVSGFSLTNYGVHWVRQPPGKGLEWLGVIWAGGITNYNSALMSRLSISEDNSKSQVFLKMNSLQTDDTAMYYCARNLGPYAMDYWGQGTSVTVSS
VL: DIQMNQSPSSLSASLGDTITITCHVSQNINVWLSWYQQKPGNIPKLLIQKASNLHTGVPSRFSGSGSGTGFTLTISSLQPEDIATYYCQQGQSYPFTFGSGTKLEIK
notes: murine mAb
B6: SC16.125 (antibody, V domains shown)
VH: DVQLQESGPDLVKPSQSLSLTCTVTGYSITSGYSWHWIRQFPGNKLEWMGYIHYSGSTNYNPSLKSRISITRDTSKNQFFLQFKSVTTEDSATYYCALEGNYDGFAYWGQGTLVTVS
VL: B5 VL with V25A, Q49Y, N53I, Y87S, F96Y, S100G
notes: murine mAb
B7: SC16.126 (antibody, V domains shown)
VH: QVQMKESGPGLVAPSQSLSITCTVSGSSLTNYGVHWVRQPPGKGLEWLGVIWAGGSTNYNSALMSRLSISKDNSKSQVFLKMNSLQTDDTAMYYCARDWEGWFAYWGQGTLVTVSA
VL: B5 VL with V25A, Q49Y
notes: murine mAb
B8: SC16.149 (antibody, V domains shown)
VH: B7 VH with M4L, T23A, S27F, N31S, Y32F, N60Y, K71I
VL: B5 VL with V25A, Q49Y, N53H, F62L, K103T
notes: murine mAb
B9: SC16.130 (antibody, V domains shown)
VH: EVQLQQSGPELVKPGASVKMSCKASGYTFTSYVMHWVKQKPGQGLEWIGYINPYNDGTEYNEKFKGKATLTSDKSSSTAYMELSSLTSEDSAVYYCARGVYDGYSYFDYWGQGTTLTVSS
VL: DIQLTQSPASLSASVGETVTITCRASGSIHNYLAWYQQKQGKSPQLLVYNAKTLVDGVPSRFSGSGSGTQYSLKINSLQPEDFGYYYCQHFWTTPWTFGGGTKLEIK
notes: murine mAb
B10: SC16.124 (antibody, V domains shown)
VH: EVQLQQSGPELVKPGASVKMSCKASGYTFTSYVMHWVKQKPGQGLEWIGYINPYNDGTKYNEKFKGKATLTSDKSSSTAYMELSSLTSEDSAVYYCARGALYYGNYLGYFDVWGAGTTVTVSS
VL: DIQMTQSPASQSASLGESVTITCLASQTIGTWLAWYQQKPGKSPQLLISAATSLADGVPSRFSGSGSGTKFSFKISSLQAEDFVSYYCQQLYSTPWTFGGGTKLEIK
notes: murine mAb
B11: SC16.132 (antibody, V domains shown)
VH: QVQLKESGPGLVAPSQSLSITCTVSGFSLTDYGVSWIRQPPGKGLEWLGVVWGGGSTYYNSALKSRLSITKDNSKSQVFLKMNSLQTDDTAMYYCAKQRGQYGAYWGQGTLVTVSA
VL: B10 VL with S49Y
notes: murine mAb
B12: SC16.138 (antibody, V domains shown)
VH: B11 VH with T70S
VL: B10 VL with S49Y, A50S
notes: murine mAb
B13: SC16.121 (antibody, V domains shown)
VH: EVQLVESGGGLVQPKGSLKLSCAASGFTFNTYAMNWVRQAPGKGLEWVARIRIKSNNYATYYADSVKDRFTISRDDSQNMLYLQMNNLKTEDTAVYYCVRQGYSYDWGPWFAYWGQGTLVTVSA
VL: QIVLTQSPAIMSASPGEKVTITCSASSSVSYMHWFQQKPGTSPKLWIYSTSNLASGVPARFSGSGSGTSYSLTISRMEAEDAATYYCQQRSSYPPTFGGGTKLEIKR
notes: murine mAb
B14: SC16.10 (antibody, V domains shown)
VH: QVTLKESGPGILQSSQTLSLTCSFSGFSLSTSGMGVGWIRQPSGKGLEWLAHIWWDDVKRYNPVLKSRLTISKDTSSSQVFLKIASVDTADTATYYCARLVDDLYYFDYWGQGTTLTVSS
VL: QIVLTQSPAIMSASLGERVTMTCTASSSVSSSYLHWYQQKPGSSPKLWIYSTSNLASGVPTRFSGSGSGTSYSLTISSMEAEDAATYYCHQYHRSPFTFGSGTKLEIK
notes: murine mAb
B15: SC16.123 (antibody, V domains shown)
VH: QVALKESGPGILQPSQTLSLTCSFSGFSLSTSGMGVGWIRQPSGKGLEWLAHIWWDDVKRYNPALKSRLTISKDTSSSQVFLKIASVDTADTATYYCARMEDYGSSSYFDFWGHGTTLTVSS
VL: B14 VL with T61A, A81T
notes: murine mAb
B16: SC16.114 (antibody, V domains shown)
VH: EVQLQQSGAELVKPGASVKLSCTASGFNIKDTYIHWVKQRPEQGLEWIGRIDPANGNTKYDPKFQGKATITPDTSSNTAYLQLSSLTSEDTAVYYCARSWRNYGSSFWYFDVWGAGTTVTVSS
VL: QIVLSQSPAILSASPGEKVTMTCRASSSVSYMHWYQQKPGSSPKPWIYATSNLASGVPARFSGSGSGTSYSLTISRVEAEDAATYYCQQWSSNPYTFGGGTKLEIKR
notes: murine mAb
B17: SC16.118 (antibody, V domains shown)
VH: EVQLQQSGPDLVKPGASVKISCKASGYSFTGYYMHWVKQSHGKSLEWIGRVNPNNGGTSYNQKFKGKAILTADKSSSTAYMELRSLTSEDSAVYYCARGSYDYAEGWGQGTLVTVSA
VL: DIVLTQSPASLAVSLGQRATISCKASQSVDYDGDSYLTWYQQKPGQPPKLLIYAASNLESGIPARFSGSGSGTDFTLNIHPVEEEDAATYYCQQSNEDPYTFGGGTKLEIKR
notes: murine mAb
B18: SC16.134 (antibody, V domains shown)
VH: B17 VH with S44R, S59N, A72V, Y103N
VL: B17 VL with Y31H, D32A, L37M, T38N
notes: murine mAb
B19: SC16.11 (antibody, V domains shown)
VH: QIQLVQSGPELKKPGETVKISCKASGYTFTDYSMHWVKQAPGKGLKWMGWINTETVEPTYADDFMGRFAFSLETSASTAFLQINNLENEDTATYFCARFGSYAMDYWGQGTSVTVSS
VL: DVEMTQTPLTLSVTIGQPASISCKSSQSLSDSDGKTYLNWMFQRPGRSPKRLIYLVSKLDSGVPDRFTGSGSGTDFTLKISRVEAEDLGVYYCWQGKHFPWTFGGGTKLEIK
notes: murine mAb
B20: SC16.107 (antibody, V domains shown)
VH: EVQLQQSGPELVKPGASVKMSCKASGYTFTNYVMHWVKQKPGQGLEWIGYINPYNDGTKYNEKFKGKATLTSDKSSTTAYMALSSLTSEDSAVYYCAVAYYSNWGFAYWGQGTLVTVSA
VL: DIVMTQSHKFMSTSVGDRVSITCKASQDVNTAVGWYQQKPGQSPKLLIYSASYRYTGVPDRFTGSGSGTDFTFTISSVQAEDLAVYYCQQHYSSPYTFGGGTKLEIKR
notes: murine mAb
B21: SC16.122 (antibody, V domains shown)
VH: EVQLVESGGGLVKPGGSLKLSCAASGFTFSDYYMFWVRQTPEKRLEWVATISDGGSYTYFPDSVKGRFTISRDNAQNNLYLQMSSLKSEDTAMYYCARAGTLYAMDYWGQGTSVTVSS
VL: DIVMTQSQKFMSTSVGDRVSVTCKASQNVGTNVAWYQQKPGQSPKVLIYSASYRYSGVPDRFTGSGSGTDFTLTISNVQSEDLAEFFCQQYNSYPLTFGGGTKLEIK
notes: murine mAb
B22: SC16.111 (antibody, V domains shown)
VH: EVQLQQSGPELEKPGASVKISCKASGYSFTGYNMNWVKQSNGKSLEWIGNIDPYYGGSSYKQKFEGKATLTVDKSSSTAYMQLKSLTSEDSAVYYCARGGSNFFDYWGQGTTLTVSS
VL: DIQMTQSPASLAASVGETVTITCRASENIYYSLAWYQQKQGKSPQLLIYNANSLEDGVPSRFSGSGSGTQYSMKINSMQPEDTATYFCKQTYDVPLTFGAGTKLELK
notes: murine mAb

Residue numbers refer to the chain shown, from its start.

This experiment deals with T1, human DLL3 antigen. In words: ELISA or flow cytometry screen.
As for B1, the binding result is on record as “binds”.
The entry for B2 is “binds”.
As to B3, the binding result is “binds”.
The result for B4 reads “binds”; that for B5, “binds”; that for B6, “binds”.
Turning to B7, the binding result was “binds”.
Consider B8, for which the binding result is on record as “binds”.
B9: the binding result was “binds”.
As for B10, the binding result was “binds”.
The entry for B11 is “binds”; for B12 it is “binds”; for B13 it is “binds”.
The entry for B14 is “binds”; for B15 it is “binds”; for B16 it is “binds”.
With B17, the binding result is on record as “binds”.
The entry for B18 is “binds”.
For B19, the binding result is reported as “binds”.
For B20, the binding result is “binds”.
The entry for B21 is “binds”.
The result for B22 reads “binds”.
